Here are results for 30 variants from the RNAGym collection of RNA variant scans (doi:10.1093/molbev/msab373).

The labels stand for the following.
B1: Azoarcus group I ribozyme (parent)
chain: GUGCCUUGCGCCGGGAAACCACGCAAGGGAUGGUGUCAAAUUCGGCGAAACCUAAGCGCCCGCCCGGGCGUAUGGCAACGCCGAGCCAAGCUUCGGCGCCUGCGCCGAUGAAGGUGUAGAGACUAGACGGCACCCACCUAAGGCAAACGCUAUGGUGAAGGCAUAGUCCAGGGAGUGGCGAAAGUCACACAAACCGG

In the data set the parent is B1. Nature of the data set: reverse-splicing fitness (ratio to wild type); higher = more active; in vitro selection; Mg2+ level not given. An outline of the steps: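 An in vitro group I ribozyme library with randomized positions was T7-transcribed and gel-purified. In triplicate, 10 pmol RNA in EPPS pH 7.5 was reacted with 50 pmoles of a 30-nt RNA substrate for 1 h at 37 °C across several added MgCl2 levels (1–48 mM), then stopped with EDTA. Products were reverse transcribed from a substrate-complementary primer, PCR-amplified and sequenced (HiSeq 4000). Fitness is a variant's read proportion after selection over that before, normalised to wild type.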
GUGCCUUGCGCCGGGAAACCACGCAAGGGAUGGUGUCAAAUUCGGCGAAACCUAAGCGCCCGCCCGGGCGUAUGGCAACGCAGAGCCAAGCUUCGGCGCCUGCGCCGAUGGAGGUGUAGAGACUAGACGGCACCCACCUAAGGCUAACGAUAUGGUGAAGGCAUAGUCGAGGGAGCGGCGAAAGUCACACAAACCGG: the reverse-splicing fitness turned out to be 0.016.

GUGCCUUGCGCCGGGAAACCACGCAAGGGAUGGUGUCAAAUUCGGCGAAACCUAAGCGCCCGCCCGGGCGUAUGGCAACGCAGAGCCAAGCUUCGGCGCCUGCGCCGAUGGAGGUGUAGAGACUAGACGGCACCCACCUAAGGCUAACGAUAUGGUGAAGGCAUAGUCGAGGGAGAGGCGAAAGUCACACAAACCGG: the reverse-splicing fitness was 0.0174. Consider GUGCCUUGCGCCGGGAAACCACGCAAGGGAUGGUGUCAAAUUCGGCGAAACCUAAGCGCCCGCCCGGGCGUAUGGCAACGCAGAGCCAAGCUUCGGCGCCUGCGCCGAUGGAGGUGUAGAGACUAGACGGCACCCACCUAAGGCUAACGAUAUGGUGAAGGCAUAGUCGAGGGAGGGGCGAAAGUCACACAAACCGG, for which the reverse-splicing fitness turned out to be 0.00624.

For the variant GUGCCUUGCGCCGGGAAACCACGCAAGGGAUGGUGUCAAAUUCGGCGAAACCUAAGCGCCCGCCCGGGCGUAUGGCAACGCAGAGCCAAGCUUCGGCGCCUGCGCCGAUGGAGGUGUAGAGACUAGACGGCACCCACCUAAGGCUAACGAUAUGGUGAAGGCAUAGUCUAGGGAGCGGCGAAAGUCACACAAACCGG, the reverse-splicing fitness amounted to 0.0109. Take GUGCCUUGCGCCGGGAAACCACGCAAGGGAUGGUGUCAAAUUCGGCGAAACCUAAGCGCCCGCCCGGGCGUAUGGCAACGCAGAGCCAAGCUUCGGCGCCUGCGCCGAUGGAGGUGUAGAGACUAGACGGCACCCACCUAAGGCUAACGAUAUGGUGAAGGCAUAGUCUAGGGAGGGGCGAAAGUCACACAAACCGG: the reverse-splicing fitness is 0.00627. Turning to GUGCCUUGCGCCGGGAAACCACGCAAGGGAUGGUGUCAAAUUCGGCGAAACCUAAGCGCCCGCCCGGGCGUAUGGCAACGCAGAGCCAAGCUUCGGCGCCUGCGCCGAUGGAGGUGUAGAGACUAGACGGCACCCACCUAAGGCUAACGAUAUGGUGAAGGCAUAGUCUAGGGAGAGGCGAAAGUCACACAAACCGG, the reverse-splicing fitness was determined as 0.0132. Consider GUGCCUUGCGCCGGGAAACCACGCAAGGGAUGGUGUCAAAUUCGGCGAAACCUAAGCGCCCGCCCGGGCGUAUGGCAACGCAGAGCCAAGCUUCGGCGCCUGCGCCGAUGGAGGUGUAGAGACUAGACGGCACCCACCUAAGGCUAACGAUAUGGUGAAGGCAUAGUCAAGGGAGGGGCGAAAGUCACACAAACCGG, for which the reverse-splicing fitness came to 0.00674.

Turning to GUGCCUUGCGCCGGGAAACCACGCAAGGGAUGGUGUCAAAUUCGGCGAAACCUAAGCGCCCGCCCGGGCGUAUGGCAACGCAGAGCCAAGCUUCGGCGCCUGCGCCGAUGGAGGUGUAGAGACUAGACGGCACCCACCUAAGGCUAACGAUAUGGUGAAGGCAUAGUCCAGGGAGAGGCGAAAGUCACACAAACCGG, the reverse-splicing fitness was found to be 0.0241. For GUGCCUUGCGCCGGGAAACCACGCAAGGGAUGGUGUCAAAUUCGGCGAAACCUAAGCGCCCGCCCGGGCGUAUGGCAACGCAGAGCCAAGCUUCGGCGCCUGCGCCGAUGGAGGUGUAGAGACUAGACGGCACCCACCUAAGGCUAACGAUAUGGUGAAGGCAUAGUCCAGGGAGGGGCGAAAGUCACACAAACCGG, the reverse-splicing fitness turned out to be 0.0106. As for GUGCCUUGCGCCGGGAAACCACGCAAGGGAUGGUGUCAAAUUCGGCGAAACCUAAGCGCCCGCCCGGGCGUAUGGCAACGCAGAGCCAAGCUUCGGCGCCUGCGCCGAUGGAGGUGUAGAGACUAGACGGCACCCACCUAAGGCUAACGAUAUGGUGAAGGCAUAGUCCAGGGAGCGGCGAAAGUCACACAAACCGG, the figure is 0.03; as for GUGCCUUGCGCCGGGAAACCACGCAAGGGAUGGUGUCAAAUUCGGCGAAACCUAAGCGCCCGCCCGGGCGUAUGGCAACGCAGAGCCAAGCUUCGGCGCCUGCGCCGAUGGAGGUGUAGAGACUAGACGGCACCCACCUAAGGCUAACGGUAUGGUGAAGGCAUAGUCAAGGGAGCGGCGAAAGUCACACAAACCGG, 0.0104.

Regarding GUGCCUUGCGCCGGGAAACCACGCAAGGGAUGGUGUCAAAUUCGGCGAAACCUAAGCGCCCGCCCGGGCGUAUGGCAACGCAGAGCCAAGCUUCGGCGCCUGCGCCGAUGGAGGUGUAGAGACUAGACGGCACCCACCUAAGGCUAACGGUAUGGUGAAGGCAUAGUCAAGGGAGAGGCGAAAGUCACACAAACCGG, the reverse-splicing fitness worked out at 0.0104.

GUGCCUUGCGCCGGGAAACCACGCAAGGGAUGGUGUCAAAUUCGGCGAAACCUAAGCGCCCGCCCGGGCGUAUGGCAACGCAGAGCCAAGCUUCGGCGCCUGCGCCGAUGGAGGUGUAGAGACUAGACGGCACCCACCUAAGGCUAACGGUAUGGUGAAGGCAUAGUCAAGGGAGGGGCGAAAGUCACACAAACCGG: the reverse-splicing fitness was 0.00684.

On to GUGCCUUGCGCCGGGAAACCACGCAAGGGAUGGUGUCAAAUUCGGCGAAACCUAAGCGCCCGCCCGGGCGUAUGGCAACGCAGAGCCAAGCUUCGGCGCCUGCGCCGAUGGAGGUGUAGAGACUAGACGGCACCCACCUAAGGCUAACGGUAUGGUGAAGGCAUAGUCAAGGGAGUGGCGAAAGUCACACAAACCGG, for which the reverse-splicing fitness turned out to be 0.00833. As for GUGCCUUGCGCCGGGAAACCACGCAAGGGAUGGUGUCAAAUUCGGCGAAACCUAAGCGCCCGCCCGGGCGUAUGGCAACGCAGAGCCAAGCUUCGGCGCCUGCGCCGAUGGAGGUGUAGAGACUAGACGGCACCCACCUAAGGCUAACGGUAUGGUGAAGGCAUAGUCGAGGGAGUGGCGAAAGUCACACAAACCGG, the reverse-splicing fitness was determined as 0.00749.

GUGCCUUGCGCCGGGAAACCACGCAAGGGAUGGUGUCAAAUUCGGCGAAACCUAAGCGCCCGCCCGGGCGUAUGGCAACGCAGAGCCAAGCUUCGGCGCCUGCGCCGAUGGAGGUGUAGAGACUAGACGGCACCCACCUAAGGCUAACGGUAUGGUGAAGGCAUAGUCUAGGGAGUGGCGAAAGUCACACAAACCGG: the reverse-splicing fitness was 0.00964. With GUGCCUUGCGCCGGGAAACCACGCAAGGGAUGGUGUCAAAUUCGGCGAAACCUAAGCGCCCGCCCGGGCGUAUGGCAACGCAGAGCCAAGCUUCGGCGCCUGCGCCGAUGGAGGUGUAGAGACUAGACGGCACCCACCUAAGGCUAACGGUAUGGUGAAGGCAUAGUCGAGGGAGCGGCGAAAGUCACACAAACCGG the figure was 0.00567.

On to GUGCCUUGCGCCGGGAAACCACGCAAGGGAUGGUGUCAAAUUCGGCGAAACCUAAGCGCCCGCCCGGGCGUAUGGCAACGCAGAGCCAAGCUUCGGCGCCUGCGCCGAUGGAGGUGUAGAGACUAGACGGCACCCACCUAAGGCUAACGGUAUGGUGAAGGCAUAGUCGAGGGAGGGGCGAAAGUCACACAAACCGG, for which the reverse-splicing fitness turned out to be 0.00584. As for GUGCCUUGCGCCGGGAAACCACGCAAGGGAUGGUGUCAAAUUCGGCGAAACCUAAGCGCCCGCCCGGGCGUAUGGCAACGCAGAGCCAAGCUUCGGCGCCUGCGCCGAUGGAGGUGUAGAGACUAGACGGCACCCACCUAAGGCUAACGGUAUGGUGAAGGCAUAGUCGAGGGAGAGGCGAAAGUCACACAAACCGG, the figure is 0.00771; as for GUGCCUUGCGCCGGGAAACCACGCAAGGGAUGGUGUCAAAUUCGGCGAAACCUAAGCGCCCGCCCGGGCGUAUGGCAACGCAGAGCCAAGCUUCGGCGCCUGCGCCGAUGGAGGUGUAGAGACUAGACGGCACCCACCUAAGGCUAACGGUAUGGUGAAGGCAUAGUCCAGGGAGCGGCGAAAGUCACACAAACCGG, 0.0181; as for GUGCCUUGCGCCGGGAAACCACGCAAGGGAUGGUGUCAAAUUCGGCGAAACCUAAGCGCCCGCCCGGGCGUAUGGCAACGCAGAGCCAAGCUUCGGCGCCUGCGCCGAUGGAGGUGUAGAGACUAGACGGCACCCACCUAAGGCUAACGGUAUGGUGAAGGCAUAGUCCAGGGAGGGGCGAAAGUCACACAAACCGG, 0.0047. In the case of GUGCCUUGCGCCGGGAAACCACGCAAGGGAUGGUGUCAAAUUCGGCGAAACCUAAGCGCCCGCCCGGGCGUAUGGCAACGCAGAGCCAAGCUUCGGCGCCUGCGCCGAUGGAGGUGUAGAGACUAGACGGCACCCACCUAAGGCUAACGGUAUGGUGAAGGCAUAGUCCAGGGAGAGGCGAAAGUCACACAAACCGG, the reverse-splicing fitness was 0.00973. In the case of GUGCCUUGCGCCGGGAAACCACGCAAGGGAUGGUGUCAAAUUCGGCGAAACCUAAGCGCCCGCCCGGGCGUAUGGCAACGCAGAGCCAAGCUUCGGCGCCUGCGCCGAUGGAGGUGUAGAGACUAGACGGCACCCACCUAAGGCUAACGGUAUGGUGAAGGCAUAGUCCAGGGAGUGGCGAAAGUCACACAAACCGG, the reverse-splicing fitness is 0.0319. For GUGCCUUGCGCCGGGAAACCACGCAAGGGAUGGUGUCAAAUUCGGCGAAACCUAAGCGCCCGCCCGGGCGUAUGGCAACGCAGAGCCAAGCUUCGGCGCCUGCGCCGAUGGAGGUGUAGAGACUAGACGGCACCCACCUAAGGCUAACGUUAUGGUGAAGGCAUAGUCCAGGGAGUGGCGAAAGUCACACAAACCGG, the reverse-splicing fitness worked out at 0.254. Take GUGCCUUGCGCCGGGAAACCACGCAAGGGAUGGUGUCAAAUUCGGCGAAACCUAAGCGCCCGCCCGGGCGUAUGGCAACGCAGAGCCAAGCUUCGGCGCCUGCGCCGAUGGAGGUGUAGAGACUAGACGGCACCCACCUAAGGCUAACGGUAUGGUGAAGGCAUAGUCUAGGGAGCGGCGAAAGUCACACAAACCGG: the reverse-splicing fitness worked out at 0.0117. Turning to GUGCCUUGCGCCGGGAAACCACGCAAGGGAUGGUGUCAAAUUCGGCGAAACCUAAGCGCCCGCCCGGGCGUAUGGCAACGCAGAGCCAAGCUUCGGCGCCUGCGCCGAUGGAGGUGUAGAGACUAGACGGCACCCACCUAAGGCUAACGGUAUGGUGAAGGCAUAGUCUAGGGAGAGGCGAAAGUCACACAAACCGG, the reverse-splicing fitness worked out at 0.00709. As to GUGCCUUGCGCCGGGAAACCACGCAAGGGAUGGUGUCAAAUUCGGCGAAACCUAAGCGCCCGCCCGGGCGUAUGGCAACGCAGAGCCAAGCUUCGGCGCCUGCGCCGAUGGAGGUGUAGAGACUAGACGGCACCCACCUAAGGCUAACGGUAUGGUGAAGGCAUAGUCUAGGGAGGGGCGAAAGUCACACAAACCGG, the reverse-splicing fitness was 0.00668.

GUGCCUUGCGCCGGGAAACCACGCAAGGGAUGGUGUCAAAUUCGGCGAAACCUAAGCGCCCGCCCGGGCGUAUGGCAACGCAGAGCCAAGCUUCGGCGCCUGCGCCGAUGGAGGUGUAGAGACUAGACGGCACCCACCUAAGGCUAACGUUAUGGUGAAGGCAUAGUCAAGGGAGUGGCGAAAGUCACACAAACCGG: the reverse-splicing fitness is 0.00951.

GUGCCUUGCGCCGGGAAACCACGCAAGGGAUGGUGUCAAAUUCGGCGAAACCUAAGCGCCCGCCCGGGCGUAUGGCAACGCAGAGCCAAGCUUCGGCGCCUGCGCCGAUGGAGGUGUAGAGACUAGACGGCACCCACCUAAGGCUAACGAUAUGGUGAAGGCAUAGUCGAGGGAGUGGCGAAAGUCACACAAACCGG: the reverse-splicing fitness is 0.00826. Regarding GUGCCUUGCGCCGGGAAACCACGCAAGGGAUGGUGUCAAAUUCGGCGAAACCUAAGCGCCCGCCCGGGCGUAUGGCAACGCAGAGCCAAGCUUCGGCGCCUGCGCCGAUGGAGGUGUAGAGACUAGACGGCACCCACCUAAGGCUAACGAUAUGGUGAAGGCAUAGUCUAGGGAGUGGCGAAAGUCACACAAACCGG, the reverse-splicing fitness turned out to be 0.0106.
